Test [1] addresses MPPT3 (proaerolysin with a uPA cleavage site in the activation sequence, an AFAI antibody fragment attached by a uPA-cleavable linker, and a His tag) (Aeromonas hydrophila). Kind of test: cell-based or functional assay.
Test [2] concerns the target MPPT2 (proaerolysin with a uPA cleavage site in the activation sequence, an N-terminal AFAI antibody fragment and a His tag) (Aeromonas hydrophila). Kind of test: cell-based or functional assay.

Consider “urokinase-type plasminogen activator (uPA) (enzyme)”, for which the Hemolytic activity after 60 minutes (horse red blood cells, after uPA digestion) (hemolytic titer (wells showing lysis)) in test [1] was determined as 8; in test [2], 4.5.

The values are drawn from patent publication US20090016988A1.
